Experimental data taken from paper PMC11612773 (2024).

B1: recombinant Arabidopsis dehydrin LEA14 (AT2G21490) with carboxy-terminal hexahistidyl tag (natural protein)
chain: MADLRDEKGNPIHLTDTQGNPIVDLTDEHGNPMYLTGVVSSTPQHKESTTSDIAEHPTSTVGETHPAAAPAGAGAATAATATGVSAGTGATTTGQQHHGSLEEHLRRSGSSSSSSSEDDGQGGRRKKSIKEKIKEKFGSGKHKDEQTPATATTTGPATTDQPHEKKGILEKIKDKLPGHHNHNHP
B2: recombinant soybean dehydrin GmPM12 (Glyma.04G009900.1) with carboxy-terminal hexahistidyl tag (natural protein)
chain: MAEAQLRDQHGNPVPLTDQYGNPVILTDERGNPVQLTGVATTATGTAGSGFGSYGTGAYGGGASATTVADLLATQPRSGREARELRRSSSSSSSSSEDDGQGGRRKKGVKDKIKEKLPGVGGGNNNKEHAHTTTAPTTATNHPADQHEKKGIMERIKEKLPGHHTHLE

Target: the molecule itself

Protein	Kd
B1	13.3 µM
B2	6.8 µM
